Test results taken from US20110190200A1 (INDIANA UNIVERSITY RESEARCH AND TECHNOLOGY, published 2011).
Numbered stars: 1 amine (or outer) side, 2 acyl side, 3 side chain; on linkers, the order of the positions; unused ones are H or OH. Square brackets hold non-standard residues; d marks the D form. Side chains are listed from the residue outwards. Ends that are not written are not given here. * marks the point of attachment. γGlu = O=C(O)[C@H](CCC(=O)[*:2])N[*:1]; Palmitoyl = CCCCCCCCCCCCCCCC(=O)*; Myristoyl = CCCCCCCCCCCCCC(=O)*; Aib = CC(C)(N)C(=O)O

Legend:
Assay in all cases: cell-based or functional assay
[1] = target: T1, glucagon receptor (human, UniProt P47871 26-477)
[2] = target: T2, GLP-1 receptor (UniProt P43220 24-463, limits assumed)
[3] = target: T1, glucagon receptor; remark: listed apart in the source
[4] = target: T2, GLP-1 receptor; remark: listed apart in the source
[5] = target: T1, glucagon receptor; remark: listed apart in the source
[6] = target: T2, GLP-1 receptor; remark: listed apart in the source
[7] = target: T1, glucagon receptor; remark: listed apart in the source
[8] = target: T1, glucagon receptor; remark: listed apart in the source
[9] = target: T2, GLP-1 receptor; remark: listed apart in the source

T1 sequence (P47871 26-477): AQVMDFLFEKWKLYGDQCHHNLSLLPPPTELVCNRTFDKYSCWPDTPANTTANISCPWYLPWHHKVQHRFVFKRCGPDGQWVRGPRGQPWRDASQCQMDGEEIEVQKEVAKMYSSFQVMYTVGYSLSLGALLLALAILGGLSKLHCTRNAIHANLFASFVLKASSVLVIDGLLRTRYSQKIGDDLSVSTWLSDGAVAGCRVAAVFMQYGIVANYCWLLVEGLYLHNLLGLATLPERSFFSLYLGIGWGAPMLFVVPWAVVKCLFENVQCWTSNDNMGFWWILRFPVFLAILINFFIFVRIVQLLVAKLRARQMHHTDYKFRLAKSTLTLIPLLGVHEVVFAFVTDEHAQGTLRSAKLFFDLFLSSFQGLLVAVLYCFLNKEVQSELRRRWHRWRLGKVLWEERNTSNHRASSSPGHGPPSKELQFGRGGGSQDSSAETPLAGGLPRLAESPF

## HSQGTFTSDYSKYLESRRAQDFVQWLMDT [glucagon analog D28, E15]
[1]
  Observed EC50s (nM) in Cells Overexpressing the Glucagon Receptor, Test 3: 0.15 nM

B1: Peptide 81** (Table 11) (peptide)
peptide: H[Aib]QGTFTSDK([Ala-Ala-Myristoyl])SKYLD[Aib]RRAQDFVCWLMNT-NH2
modifications: N-terminus assumed
SMILES: CCCCCCCCCCCCCC(=O)N[C@@H](C)C(=O)N[C@@H](C)C(=O)NCCCC[C@H](NC(=O)[C@H](CC(=O)O)NC(=O)[C@H](CO)NC(=O)[C@@H](NC(=O)[C@H](Cc1ccccc1)NC(=O)[C@@H](NC(=O)CNC(=O)[C@H](CCC(N)=O)NC(=O)C(C)(C)NC(=O)[C@@H](N)Cc1c[nH]cn1)[C@@H](C)O)[C@@H](C)O)C(=O)N[C@@H](CO)C(=O)N[C@@H](CCCCN)C(=O)N[C@@H](Cc1ccc(O)cc1)C(=O)N[C@@H](CC(C)C)C(=O)N[C@@H](CC(=O)O)C(=O)NC(C)(C)C(=O)N[C@@H](CCCNC(=N)N)C(=O)N[C@@H](CCCNC(=N)N)C(=O)N[C@@H](C)C(=O)N[C@@H](CCC(N)=O)C(=O)N[C@@H](CC(=O)O)C(=O)N[C@@H](Cc1ccccc1)C(=O)N[C@H](C(=O)N[C@@H](CS)C(=O)N[C@@H](Cc1c[nH]c2ccccc12)C(=O)N[C@@H](CC(C)C)C(=O)N[C@@H](CCSC)C(=O)N[C@@H](CC(N)=O)C(=O)N[C@H](C(N)=O)[C@@H](C)O)C(C)C
[2]
  EC50 at GLP-1 Receptor: 18 pM

## HSQGTFTSDYSKYLDSRRAQDFVQWLMNKK [glucagon analog K29, K30]
[1]
  Observed EC50s (nM) in Cells Overexpressing the Glucagon Receptor, Test 1: 0.89 nM

## HSQGTFTSDYSKYLDSRRAQDFVQWLMNTKK [glucagon analog K30, K31]
[1]
  Observed EC50s (nM) in Cells Overexpressing the Glucagon Receptor, Test 2: 0.12 nM

## HSQGTFTSDYSKYLDSRRAQDFVQWLMDTE [glucagon analog D28, E30]
[1]
  Observed EC50s (nM) in Cells Overexpressing the Glucagon Receptor, Test 3: 0.05 nM

B2: Peptide dS2E16K20K30-C14 Gluc Amide (peptide)
peptide: HXQGTFTSDYSKYLDERRAKDFVQWLMNTK
modifications: d-Ser at position 2; Lys at position 30 acylated with a C14 fatty acyl group; C-terminal amide
[3]
  EC50 at the glucagon receptor: 3530 pM
[4]
  EC50 at the GLP-1 receptor: 840 pM

## HSQGTFTSDYSRYLDSRRAQDFVQWLMNK [Glucagon R12 K29]
[5]
  cAMP Induction, EC50: 810 pM
[6]
  cAMP Induction, EC50: 410 pM

## HSQGTFTSDYSKYLD[Aib]RRAQDFVQWLMDE [AIB 16/D28/E29 Glucagon]
[7]
  EC50, in vitro activity at the glucagon receptor: 80 pM

B3: Peptide 77** (Table 11) (peptide)
peptide: H[Aib]QGTFTSDK(Myristoyl)SKYLD[Aib]RRAQDFVCWLMNT-NH2
modifications: N-terminus assumed
SMILES: CCCCCCCCCCCCCC(=O)NCCCC[C@H](NC(=O)[C@H](CC(=O)O)NC(=O)[C@H](CO)NC(=O)[C@@H](NC(=O)[C@H](Cc1ccccc1)NC(=O)[C@@H](NC(=O)CNC(=O)[C@H](CCC(N)=O)NC(=O)C(C)(C)NC(=O)[C@@H](N)Cc1c[nH]cn1)[C@@H](C)O)[C@@H](C)O)C(=O)N[C@@H](CO)C(=O)N[C@@H](CCCCN)C(=O)N[C@@H](Cc1ccc(O)cc1)C(=O)N[C@@H](CC(C)C)C(=O)N[C@@H](CC(=O)O)C(=O)NC(C)(C)C(=O)N[C@@H](CCCNC(=N)N)C(=O)N[C@@H](CCCNC(=N)N)C(=O)N[C@@H](C)C(=O)N[C@@H](CCC(N)=O)C(=O)N[C@@H](CC(=O)O)C(=O)N[C@@H](Cc1ccccc1)C(=O)N[C@H](C(=O)N[C@@H](CS)C(=O)N[C@@H](Cc1c[nH]c2ccccc12)C(=O)N[C@@H](CC(C)C)C(=O)N[C@@H](CCSC)C(=O)N[C@@H](CC(N)=O)C(=O)N[C@H](C(N)=O)[C@@H](C)O)C(C)C
[8]
  EC50 at Glucagon Receptor: 144 pM
[2]
  EC50 at GLP-1 Receptor: 63 pM

B4: Peptide 80** (Table 11) (peptide)
peptide: H[Aib]QGTFTSDK([γGlu-γGlu-Palmitoyl])SKYLD[Aib]RRAQDFVCWLMNT-NH2
modifications: N-terminus assumed
SMILES: CCCCCCCCCCCCCCCC(=O)N[C@@H](CCC(=O)N[C@@H](CCC(=O)NCCCC[C@H](NC(=O)[C@H](CC(=O)O)NC(=O)[C@H](CO)NC(=O)[C@@H](NC(=O)[C@H](Cc1ccccc1)NC(=O)[C@@H](NC(=O)CNC(=O)[C@H](CCC(N)=O)NC(=O)C(C)(C)NC(=O)[C@@H](N)Cc1c[nH]cn1)[C@@H](C)O)[C@@H](C)O)C(=O)N[C@@H](CO)C(=O)N[C@@H](CCCCN)C(=O)N[C@@H](Cc1ccc(O)cc1)C(=O)N[C@@H](CC(C)C)C(=O)N[C@@H](CC(=O)O)C(=O)NC(C)(C)C(=O)N[C@@H](CCCNC(=N)N)C(=O)N[C@@H](CCCNC(=N)N)C(=O)N[C@@H](C)C(=O)N[C@@H](CCC(N)=O)C(=O)N[C@@H](CC(=O)O)C(=O)N[C@@H](Cc1ccccc1)C(=O)N[C@H](C(=O)N[C@@H](CS)C(=O)N[C@@H](Cc1c[nH]c2ccccc12)C(=O)N[C@@H](CC(C)C)C(=O)N[C@@H](CCSC)C(=O)N[C@@H](CC(N)=O)C(=O)N[C@H](C(N)=O)[C@@H](C)O)C(C)C)C(=O)O)C(=O)O
[8]
  EC50 at Glucagon Receptor: 6 pM
[2]
  EC50 at GLP-1 Receptor: 8 pM

B5: Peptide 78** (Table 11) (peptide)
peptide: H[Aib]QGTFTSDK([γGlu-γGlu-Myristoyl])SKYLD[Aib]RRAQDFVCWLMNT-NH2
modifications: N-terminus assumed
SMILES: CCCCCCCCCCCCCC(=O)N[C@@H](CCC(=O)N[C@@H](CCC(=O)NCCCC[C@H](NC(=O)[C@H](CC(=O)O)NC(=O)[C@H](CO)NC(=O)[C@@H](NC(=O)[C@H](Cc1ccccc1)NC(=O)[C@@H](NC(=O)CNC(=O)[C@H](CCC(N)=O)NC(=O)C(C)(C)NC(=O)[C@@H](N)Cc1c[nH]cn1)[C@@H](C)O)[C@@H](C)O)C(=O)N[C@@H](CO)C(=O)N[C@@H](CCCCN)C(=O)N[C@@H](Cc1ccc(O)cc1)C(=O)N[C@@H](CC(C)C)C(=O)N[C@@H](CC(=O)O)C(=O)NC(C)(C)C(=O)N[C@@H](CCCNC(=N)N)C(=O)N[C@@H](CCCNC(=N)N)C(=O)N[C@@H](C)C(=O)N[C@@H](CCC(N)=O)C(=O)N[C@@H](CC(=O)O)C(=O)N[C@@H](Cc1ccccc1)C(=O)N[C@H](C(=O)N[C@@H](CS)C(=O)N[C@@H](Cc1c[nH]c2ccccc12)C(=O)N[C@@H](CC(C)C)C(=O)N[C@@H](CCSC)C(=O)N[C@@H](CC(N)=O)C(=O)N[C@H](C(N)=O)[C@@H](C)O)C(C)C)C(=O)O)C(=O)O
[8]
  EC50 at Glucagon Receptor: 9 pM
[2]
  EC50 at GLP-1 Receptor: 8 pM

B6: Peptide 79** (Table 11) (peptide)
peptide: H[Aib]QGTFTSDK([Ala-Ala-Palmitoyl])SKYLD[Aib]RRAQDFVCWLMNT-NH2
modifications: N-terminus assumed
SMILES: CCCCCCCCCCCCCCCC(=O)N[C@@H](C)C(=O)N[C@@H](C)C(=O)NCCCC[C@H](NC(=O)[C@H](CC(=O)O)NC(=O)[C@H](CO)NC(=O)[C@@H](NC(=O)[C@H](Cc1ccccc1)NC(=O)[C@@H](NC(=O)CNC(=O)[C@H](CCC(N)=O)NC(=O)C(C)(C)NC(=O)[C@@H](N)Cc1c[nH]cn1)[C@@H](C)O)[C@@H](C)O)C(=O)N[C@@H](CO)C(=O)N[C@@H](CCCCN)C(=O)N[C@@H](Cc1ccc(O)cc1)C(=O)N[C@@H](CC(C)C)C(=O)N[C@@H](CC(=O)O)C(=O)NC(C)(C)C(=O)N[C@@H](CCCNC(=N)N)C(=O)N[C@@H](CCCNC(=N)N)C(=O)N[C@@H](C)C(=O)N[C@@H](CCC(N)=O)C(=O)N[C@@H](CC(=O)O)C(=O)N[C@@H](Cc1ccccc1)C(=O)N[C@H](C(=O)N[C@@H](CS)C(=O)N[C@@H](Cc1c[nH]c2ccccc12)C(=O)N[C@@H](CC(C)C)C(=O)N[C@@H](CCSC)C(=O)N[C@@H](CC(N)=O)C(=O)N[C@H](C(N)=O)[C@@H](C)O)C(C)C
[8]
  EC50 at Glucagon Receptor: 10 pM
[2]
  EC50 at GLP-1 Receptor: 8 pM

## HSQGTFTSDYSKYLDSRRAQDFVQWLMDE [D28/E29 Glucagon]
[7]
  EC50, in vitro activity at the glucagon receptor: 60 pM
[1]
  Observed EC50s (nM) in Cells Overexpressing the Glucagon Receptor, Test 3: 0.03 nM

## HSQGTFTSDYSKYLDSRRAQDFVQWLMNTE [glucagon analog E30]
[1]
  Observed EC50s (nM) in Cells Overexpressing the Glucagon Receptor, Test 2: 0.04 nM

B7: Peptide dS2E16K20K30-C16 Gluc Amide (peptide)
peptide: B2 peptide
modifications: d-Ser at position 2; Lys at position 30 acylated with a C16 fatty acyl group; C-terminal amide
[3]
  EC50 at the glucagon receptor: 4890 pM
[4]
  EC50 at the GLP-1 receptor: 3050 pM

B8: Peptide dS2K10(C14)E16K20-Gluc Amide (peptide)
peptide: HXQGTFTSDKSKYLDERRAKDFVQWLMNT
modifications: d-Ser at position 2; Lys at position 10 acylated with a C14 fatty acyl group; C-terminal amide
[3]
  EC50 at the glucagon receptor: 155 pM
[4]
  EC50 at the GLP-1 receptor: 41 pM

## HSQGTFTSDYSKYLD[Aib]RRA[Aib]DFV[Aib]WLMNT [AIB 16, 20, 24 Glucagon]
[9]
  GLP-1 Receptor, Average (assay of Example 13): 12.2 nM

B9: Peptide dS2K10(C16)E16K20-Gluc Amide (peptide)
peptide: HXQGTFTSDKSKYLDERRAKDFVQWLMNT
modifications: d-Ser at position 2; Lys at position 10 acylated with a C16 fatty acyl group; C-terminal amide
[3]
  EC50 at the glucagon receptor: 76 pM
[4]
  EC50 at the GLP-1 receptor: 41 pM

## H[Aib]QGTFTSDK(C18 fatty acyl)SKYLDEQAAKEFIC(PEG 40 kDa)WLMNT-NH2 [Peptide Chimera 2-AIB2-K10-acylated]
[4]
  EC50 at the GLP-1 receptor: 7 pM
